# Test: soluble on expression in E. coli; label from the status in PepcDB or PDB records
row,Sequence,soluble on expression in E. coli
1,MWAFRTARIGSLLAATSVILRRCLRLGVAMAKSKFEYVRNFEVQDTCLPHCWVVVRLDGRNFHRFAEEHNFAKPNDSRALHLMTKCAQTVMEELEDIVIAYGQSDEYSFVFRKKSNWFKRRASKFMTLVASQFASSYVFYWRDYFEDQPLRYPPGFDGRVVLYPSNQTLKDYLSWRQADCHINNLYNTVFWALIQQSGLTPVQAQQRLKGTLTADKNEILFSEFHINYNNEPHMYRKGTVLVWQKVEEVRTQEVRLPAEMEGEKKAVARTRTRVVALNCDLIGDAFWKEHPEILAEEN,soluble
2,MWESKFVKEGLTFDDVLLVPAKSDVLPREVSVKTVLSESLQLNIPLISAGMDTVTEADMAIAMARQGGLGIIHKNMSIEQQAEQVDKVKRSESGVISDPFFLTPEHQVYDAEHLMGKYRISGVPVVNNLDERKLVGIITNRDMRFIQDYSIKISDVMTKEQLITAPVGTTLSEAEKILQKYKIEKLPLVDNNGVLQGLITIKDIEKVIEFPNSAKDKQGRLLVGAAVGVTADAMTRIDALVKASVDAIVLDTAHGHSQGVIDKVKEVRAKYPSLNIIAGNVATAEATKALIEAGANVVKVGIGPGSICTTRVVAGVGVPQLTAVYDCATEARKHGIPVIADGGIKYSGDMVKALAAGAHVVMLGSMFAGVAESPGETEIYQGRQFKVYRGMGSVGAMEKGSKDRYFQEGNKKLVPEGIEGRVPYKGPLADTVHQLVGGLRAGMGYCGAQDLEFLRENAQFIRMSGAGLLESHPHHVQITKEAPNYSL,not soluble
3,MWKFATRLGLESVDTIAATNPREAIAAVAAGQADYACVAIENSVDGPVTPTFDALATIDGVRIFHELDLPIAFAIMQRTGAPLRRFATHPVAYQQVKTWLAANAPAAEFVPASSNAEAARMAKENIVDFAAAPARAAEVYGLDIIADGVADVTGARTRFVLVGHADT,not soluble
4,MWNAGRETSSPGTELSENQAKKEKERLIKELQLITEERNDLRDRLRFLTERSMKNRSHFRPNPYYEDLERMEEAVMSILHNLEMENTEVHENNHKLKKEITFSR,soluble
5,MWPRNDVHMDDGSMTPEDQEPVTDNDMEYNDNGEESSYSNGSSSSYNADKLSSSRPLQHKLDLSASPSRNNDLNPRVEHLIALFKDLSSAEQMDAFTRLLQESNMTNIRQLRAIIEPHFQRDFLSCLPVELGMKILHNLTGYDLLKVAQVSKNWKLISEIDKIWKSLGVEEFKHHPDPTDRVTGAWQGTAIAAGVTIPDHIQPCDLNVHRFLKLQKFGDIFERAADKSRYLRADKIEKNWNANPIMGSAVLRGHEDHVITCMQIHDDVLVTGSDDNTLKVWCIDKGEVMYTLVGHTGGVWTSQISQCGRYIVSGSTDRTVKVWSTVDGSLLHTLQGHTSTVRCMAMAGSILVTGSRDTTLRVWDVESGRHLATLHGHHAAVRCVQFDGTTVVSGGYDFTVKIWNAHTGRCIRTLTGHNNRVYSLLFESERSIVCSGSLDTSIRVWDFTRPEGQECVALLQGHTSLTSGMQLRGNILVSCNADSHVRVWDIHEGTCVHMLSGHRSAITSLQWFGRNMVATSSDDGTVKLWDIERGALIRDLVTLDSGGNGGCIWRLCSTSTMLACAVGSRNNTEETKVILLDFDAVYP,not soluble
6,MWQAISQQLSDTLLFEYQITEKVRLSGGDISESYMINDGEQRYFVKINDREFLHKFEVEAESLHLLRETSTIFVPEVVLVGKTKNNAFIILNYLPTKPLDDPENSFKFGQQLAQLHQWGEQKEFGFDTDNYLGSTLQPNQWHKKWCMFFAEQRIGWQLQLLKEKGVTLVDIDDFIDVVKQLLANHTPEPSLLHGDLWNGNVALTAFGPICFDPACYWGDRECDIAMTELFGGFQPEFYQGYESVMPLLPGYHERKDIYNLYHILNHCNLFGGHYLEQAQLTINKIISYLEHHHHHH,soluble
7,MWRTEMRKFLVVLDDSRECLNAMRFAAMRAAHTGGGVAILSIIPPDEFNHWIGVGEVMREEARERIHAHFEVFAKWMRDKQGVEPELVIREGEAVPEIIAHVQEDPEIGVLVLGAGTDKKGPGPLVSQLSRSSGSLPIPITIVPGDLSKEKLEAIT,not soluble
8,MWYQKTLTLSAKSRGFHLVTDEILNQLADMPRVNIGLLHLLLQHTSASLTLNENCDPTVRHDMECFFLRTVPDNGNYEHDYEGADDMPSHIKSSMLGTSLVLPVHKGRIQTGTWQGIWLGEHRIHGGSRRIIATLQGELEHHHHHH,not soluble
9,MYAAKGTQAYAQIGVESAVMSASQQQLVTMLFDGVLSALVRASLFMQDNNQQGKGVSLSKAINIIENGLRVSLDEESKDELTQNLIALYSYMVRRLLQANLRNDVSAVEEVEALMRNIADAWKESLLSPSLIQDPV,soluble
10,MYDFAIIGSGVAGATLAKELRYRYKVAVIEKGKKPSYASEGKNVEINYVYGLGGSGVYSLGNAIKTEIKGYKIDKDIYKEIWEELKIKAPKDDFLNDIDKAFIELGFEKMEKFIDFDRCNKCGECARKICKAKWTPLNYLKESNANIITEFNIKAINYSNYYEILDDKGRKIKAKNLIISAGGINSPRILKKMIDDENIGKNLFIDTFVTVGGILEDSYLNKDISMLVYKKYKNFMLATHYSKLLINEIKKDYKDVKEKDIVGIMIKIKDENNGVVLDNDVKKEITKEDFKTLARGICKATKYLYKLGVDDIYTTIPRGSHPGGSLSLVVDEFEVREGLYVCDASLFKEALGVPPIVSIIALSKKFVREILLEHHHHHH,not soluble
11,MYEITATIVTYKNPDSVLLKAINSFLNTKLEVRLYIIDNSPTDYLKDISYDPRVEYIFMNSNNGFGAGHNVILRDPEKMGKYHLILNPDISFEEGTLEKLYDYMEGKLDVGNVMPKVIYPNGELQYLCKLLPTPKDWIVRMFLPIKSIKNRIDYNFEMKFADYDREMNIPYLSGCFMFLRKSVIEGIGVFDEGIFMYGEDTDLNRRIYRKYKTMYYPQVTITHHFEKGSHKSLRLLWIHVKAAIYYLNKWGWFFDKERSIINITVKQQYIRKLEHHHHHH,soluble
12,MYEKTKWKIQKMMKKGVFSGASFCFIEGEKEESNCWGLAQVKPTKEQLTSAMLFDVASLTKVVGTTTVILQLVEEGKIILDQSLQTYYPSFQDSNITIRHLLTHTADLQGYIPNRDQLNAQELKDAYNHSFHAGKAIGKKVVYTDAGTILLGFMLEEMFQQSMIEILSERVLLPLGMNESTFLPKNPLNCVPTELHEQRGLIRGATHDPKAFVLREHAGNAGLFSNVYDLTKFVRMYLNRGSYHNHQFLKKETIDLLLVNQVPAADKPRSLGWDFKYDVATQRPLLFHTGYTGTFLLIDVQQQSALIFLSNRVHPEDHRNTYIEERDQLLATYLKEKSSVSDEMTSF,not soluble
13,MYHDRRRTGFRQYETYMKQKQSADWQLDELLEELEALETQLNSSNGGDQLLLGVSGIPASSSRENVKSISTLPPPPPALSYHQTPQQPQLLHHHNNHLGYQNGIHQITSINSAASSCSSPDGDSAFGDSSSTESSNNRCRNSAFSSNDSCRDSLNTPSPTQVSPRNGELNAEEAKAQKIRQALEKMKEAKVTKIFVKFFVEDGEALQLLIDERWTVADTLKQLAEKNHIALMEDHCIVEEYPELYIKRVYEDHEKVVENIQMWVQDSPNKLYFMRRPDKYAFISRPELYLLTPKTSDHMEIPSGDQWTIDVKQKFVSEYFHREPVVPPEMEGFLYLKSDGRKSWKKHYFVLRPSGLYYAPKSKKPTTKDLTCLMNLHSNQVYTGIGWEKKYKSPTPWCISIKLTALQMKRSQFIKYICAEDEMTFKKWLVALRIAKNGAELLENYERACQIRRETLGPASSMSAASSSTAISEVPHSLSHHQRTPSVASSIQLSSHMMNNPTHPLSVNVRNQSPASFSVNSCQQSHPSRTSAKLEIQYDEQPTGTIKRAPLDVLRRVSRASTSSPTIPQEESDSDEEFPAPPPVASVMRMPPPVTPPKPCTPLTSKKAPPPPPKRSDTTKLQSASPMAPAKNDLEAALARRREKMATMECMGHHHHHHENLYFMGHHHHHHENLYFQSH,soluble
14,MYIELRTSLEMFRSDLVDLEALANASRDALDQLPFVPKGPKMDDDEAHPNPDPESALRSGRLDSLVCATASAAQSALVTCVKLIDWAYEYEPDDEDDDDNDIVPMDDIDDDDEGGGSSGANGGGSNGSGRSGPPDNGDASAAPSVTADELANARPSRGGIALDLPPKPAPVA,not soluble
15,MYIGIDLGTSGVKVILLNEQGEVVAAQTEKLTVSRPHPLWSEQDPEQWWQATDRAMKALGDQHSLQDVKALGIAGQMHGATLLDAQQRVLRPAILWNDGRCAQECTLLEARVPQSRVITGNLMMPGFTAPKLLWVQRHEPEIFRQIDKVLLPKDYLRLRMTGEFASDMSDAAGTMWLDVAKRDWSDVMLQACDLSRDQMPALYEGSEITGALLPEVAKAWGMATVPVVAGGGDNAAGAVGVGMVDANQAMLSLGTSGVYFAVSEGFLSKPESAVHSFCHALPQRWHLMSVMLSAASCLDWAAKLTGLSNVPALIAAAQQADESAEPVWFLPYLSGERTPHNNPQAKGVFFGLTHQHGPNELARAVLEGVGYALADGMDVVHACGIKPQSVTLIGGGARSEYWRQMLADISGQQLDYRTGGDVGPALGAARLAQIAANPEKSLIELLPQLPLEQSHLPDAQRYAAYQPRRETFRRLYQQLLPLMA,soluble
16,MYIPPYKADDQDIVVELNSRFGAETFTVQPTRTGMPVLWVPRERLIEVLTFLRQVPKPYVMLYDLHGVDERLRTHRRGLPSADFSVFYHLMSLERNSDVMIKVALSERDLNLPTATRIWPNANWYEREVWDMYGITFTGHPHLTRMLMPPTWQGHPLRKDYPARATEFDPYSLSAAKQDLEQEALRFKPEDWGMKRHGENEDYMFLNLGPNHPSAHGAFRIILQLDGEEIIDCVPEIGYHHRGAEKMAERQSWHSFIPYTDRIDYLGGVMNNLPYVLSVEKLAGIKVPQRVDVIRIMMAEFFRILNHLLYLGTYIQDVGAMTPVFFTFTDRQRAYKVVEAITGFRLHPAWYRIGGVAHDLPRGWDKLVREFLDWMPKRLDEYETAALKNSILRGRTIGVAQYNTKEALEWGTTGAGLRATGCDFDLRKARPYSGYENFEFEVPLAHNGDAYDRCMVKMGEMRQSLRIIEQCLKNMPEGPYKADHPLTTPPPKERTLQHIETLITHFLQVSWGPVMPANEAFQMIEATKGINSYYLTSDGSTMSYRTRIRTPSFAHLQQIPSVINGSM,not soluble
17,MYKLIDSAKFIMCVRSKRFRPDTLMDIFYLLNIQNMNCKKLFKTLLFIITTLVIVSCSKDDCDLDHIDKLQGLPALKAGTFPEEDLTLNVGEQYVYAPKASSPLDIYYQWYQNGEDMSTAPSFTFNAEHPGRSKVILELSNDLGKVTLENKVMVPGADYSKGCLIINEGWFGHGSGSISFYNYEKNSIEHWCYKNQNFGDVLGVTSQSATLWNGKLYVCSKEDNQLVVMDPKTLYAENSCGKLANYQAYEFIGLNDDYGIITHGGYFSRINLKTFETITLVSVGNTYTGTGSGIAYNGKLILNVNSSGWGSPKVYTIDIAELCSPDLKPTDKVAFQELDIATYGGTRFVQCKDGNIYTVETTKDGKNNLVRINADFSLKKVAMRDDYSPSSFGAYREASFCGTPEGIFYYIAGGKIYKATFDNPAPEETLTEYTKEGYGFYGAGIRVNPKTNELLAMYLTGDYQKNLLVRFNAATGEKISEIAYDGYYFPATFIFN,not soluble
18,MYLTLQEWNARQRRPRSLETVRRWVRESRIFPPPVKDGREYLFHESAVKVDLNRPVTGSLLKRIRNGKKAKS,soluble
19,MYNSATVIYQNLLKSTPKKASEYYYYLGDICWRKEKTDSAKYYFMEGIKTDETYAMNYVGIGIITMKSNATEGQRSFDKALQMTSQKNSQVLNAIGEYYILEADKAELPKGIALLKKSTEIDAKNAMSWILLGDAYGKQAEGSKQAESYGKAANLFHSVPLLKMKYGKMYAAARNKDLSIKYYNEGLAADPTYGPIYRELGDLYNRFRQYDLAIQNYKKYLTYIDSNDDVEFRYADFLFKNNNYAEAIEVFNKLEAKKYNSPYIYNRRAVCYYELAKYDLAQKDIETYFSKVNATKAKLEHHHHHH,not soluble

# Reference: the DeepSol protein solubility set
